From patent US20250304666A1 (ALCHEMAB THERAPEUTICS, published 2025)

T1: reduced CFH (Homo sapiens (Human), UniProt P08603 860-1231, limits assumed)
T1 construct: also called CFH (reduced)
T1 sequence: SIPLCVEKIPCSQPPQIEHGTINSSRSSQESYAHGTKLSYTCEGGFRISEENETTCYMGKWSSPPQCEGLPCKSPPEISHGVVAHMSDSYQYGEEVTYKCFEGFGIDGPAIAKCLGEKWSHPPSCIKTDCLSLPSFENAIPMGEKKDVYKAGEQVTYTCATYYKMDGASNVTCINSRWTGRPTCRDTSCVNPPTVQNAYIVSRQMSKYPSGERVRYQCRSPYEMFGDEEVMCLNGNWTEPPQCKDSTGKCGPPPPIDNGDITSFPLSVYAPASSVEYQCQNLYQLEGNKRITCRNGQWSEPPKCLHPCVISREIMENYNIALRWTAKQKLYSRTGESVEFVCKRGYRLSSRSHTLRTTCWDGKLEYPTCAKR

T2: reduced CFHR3 (UniProt Q02985 19-330, limits assumed)
T2 sequence (looked up): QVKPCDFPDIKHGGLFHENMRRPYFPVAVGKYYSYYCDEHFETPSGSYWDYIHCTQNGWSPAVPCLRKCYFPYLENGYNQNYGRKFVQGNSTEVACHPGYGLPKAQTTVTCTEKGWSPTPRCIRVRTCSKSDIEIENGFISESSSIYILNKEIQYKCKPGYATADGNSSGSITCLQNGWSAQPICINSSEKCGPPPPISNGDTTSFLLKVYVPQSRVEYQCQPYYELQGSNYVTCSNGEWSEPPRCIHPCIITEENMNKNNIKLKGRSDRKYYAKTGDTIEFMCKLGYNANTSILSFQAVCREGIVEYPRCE


Key:
reduced CFH = target: T1, reduced CFH; assay: direct ELISA on reduced CFH
reduced CFHR3 = target: T2, reduced CFHR3; assay: ELISA on reduced CFHR3
[1] = target: T3, immobilised biotinylated full-length CFH (reduced) (Homo sapiens (Human), UniProt P08603 19-1231, biotinylated; reduced with 20 mM dithiothreitol); assay: BLI, biotinylated reduced full-length CFH on streptavidin tips, 1:1 global fit
T3 construct: Purified endogenous full-length CFH immobilised by biotin on streptavidin BLI sensors; also called immobilised CFH; surface immobilised CFH
Method: Biolayer interferometry (BLI, Octet 96Red) was used to measure binding kinetics of the interactions between anti-CFH antibodies and CFH. The CFH used for kinetics measurements was purified endogenous CFH was biotinylated and reduced with 20 mM dithiothreitol (DTT). An irrelevant protein was treated in the same way as a negative control reference. The CFH or irrelevant control ligands were each immobilised via the conjugated biotin onto a set of streptavidin (SA) sensor tips. Sensors were dipped into reference kinetics buffer (Phosphate buffered saline (PBS), pH 7.4, 0.05% Tween-20, 2% w/v not fat milk powder) to achieve a steady baseline. Association was measured over 300 s by dipping the sensors into an analyte concentration series of anti-CFH antibody (33.3-2.08 nM in kinetics buffer) as well as a no analyte control (kinetics buffer only). Dissociation was measured over 1500 s by dipping the sensors into kinetics buffer only. Baseline, association and dissociation steps were all measured with sensors shaking at 800 rpm and at a temperature of 23° C. Data was analysed with Data Analysis HT 11.1.0.25 software. Data from reference sensors and analyte control were subtracted. Data was corrected by aligning y-axis to average of baseline 5 s before association, inter step correction aligned to start of baseline and using Savitzky-Golay filtering. Data was fit to a 1:1 model using association and dissociation phases and kinetic rate constants are reported for the global fit where each curve R2 is >0.9.

Row | EC50 (read off the curve) (reduced CFH) | binding result (reduced CFHR3) | Kd [1] | koff [1] | kon [1] | Binder
1 | ~0.1 nM |  |  |  |  | ATL4717 (antibody, human IgG1, kappa, V domains shown, Human IgG1; also called ATL0004717; ATL04717) VH: QVQLVESGGGMVQPGRSLRLSCAASGFTFSIYGMHWVRQAPGRGLEWVAVMSFDGKTKYYADSVKGRFTISRDNSKNTLYLQMNSLRRVDTAVYYCAKGGATAAVFDSWGQGTLVTVSS VL: not shown
2 |  | no binding (tested: 100 ug/ml) | 0.85 nM | 0.000348 s⁻¹ | 409000 M⁻¹ s⁻¹ | ATL5170 (antibody, human IgG1, kappa, V domains shown, IgG1; also called ATL_0005170) VH: QVQLVESGGGVVQPGRSLRLSCAASGFTFSNYGMHWVRQAPGKGLEWVAVTSFDGKTKYYADSVKGRFTISRDNSKNTLYLQMNSLRAEDTAVYYCAKGGATAAVLDSWGQGTLVTVSS VL: not shown
